# From IntAct's records for PubMed 25910212
# B1: LHFPL tetraspan subfamily member 5 protein (Homo sapiens), Q8TAF8 (parent)
# chain: MVKLLPAQEAAKIYHTNYVRNSRAVGVMWGTLTICFSVLVMALFIQPYWIGDSVNTPQAGYFGLFSYCVGNVLSSELICKGGPLDFSSIPSRAFKTAMFFVALGMFLIIGSIICFSLFFICNTATVYKICAWMQLAAATGLMIGCLVYPDGWDSSEVRRMCGEQTGKYTLGHCTIRWAFMLAILSIGDALILSFLAFVLGYRQDKLLPDDYKADGTEEV
# partner: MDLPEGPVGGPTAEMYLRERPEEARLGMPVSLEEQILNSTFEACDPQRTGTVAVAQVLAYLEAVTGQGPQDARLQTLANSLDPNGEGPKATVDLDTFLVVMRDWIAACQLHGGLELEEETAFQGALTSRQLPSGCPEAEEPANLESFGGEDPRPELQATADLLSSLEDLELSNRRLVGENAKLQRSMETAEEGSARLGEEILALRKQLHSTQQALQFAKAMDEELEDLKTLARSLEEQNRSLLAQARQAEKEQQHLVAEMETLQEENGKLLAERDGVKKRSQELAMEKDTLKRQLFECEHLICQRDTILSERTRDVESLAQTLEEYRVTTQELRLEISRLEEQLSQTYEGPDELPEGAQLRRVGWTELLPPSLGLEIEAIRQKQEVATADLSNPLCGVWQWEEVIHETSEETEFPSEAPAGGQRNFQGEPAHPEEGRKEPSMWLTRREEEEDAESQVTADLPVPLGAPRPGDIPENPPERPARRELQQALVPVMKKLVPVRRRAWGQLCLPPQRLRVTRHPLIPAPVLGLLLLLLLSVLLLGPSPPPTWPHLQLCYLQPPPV
# B2: U4/U6 small nuclear ribonucleoprotein Prp31 (Homo sapiens), Q8WWY3 (parent)
# chain: MSLADELLADLEEAAEEEEGGSYGEEEEEPAIEDVQEETQLDLSGDSVKTIAKLWDSKMFAEIMMKIEEYISKQAKASEVMGPVEAAPEYRVIVDANNLTVEIENELNIIHKFIRDKYSKRFPELESLVPNALDYIRTVKELGNSLDKCKNNENLQQILTNATIMVVSVTASTTQGQQLSEEELERLEEACDMALELNASKHRIYEYVESRMSFIAPNLSIIIGASTAAKIMGVAGGLTNLSKMPACNIMLLGAQRKTLSGFSSTSVLPHTGYIYHSDIVQSLPPDLRRKAARLVAAKCTLAARVDSFHESTEGKVGYELKDEIERKFDKWQEPPPVKQVKPLPAPLDGQRKKRGGRRYRKMKERLGLTEIRKQANRMSFGEIEEDAYQEDLGFSLGHLGKSGSGRVRQTQVNEATKARISKTLQRTLQKQSVVYGGKSTIRDRSSGTASSVAFTPLQGLEIVNPQAAEKKVAEANQKYFSSMAEFLKVKGEKSGLMST
# partner: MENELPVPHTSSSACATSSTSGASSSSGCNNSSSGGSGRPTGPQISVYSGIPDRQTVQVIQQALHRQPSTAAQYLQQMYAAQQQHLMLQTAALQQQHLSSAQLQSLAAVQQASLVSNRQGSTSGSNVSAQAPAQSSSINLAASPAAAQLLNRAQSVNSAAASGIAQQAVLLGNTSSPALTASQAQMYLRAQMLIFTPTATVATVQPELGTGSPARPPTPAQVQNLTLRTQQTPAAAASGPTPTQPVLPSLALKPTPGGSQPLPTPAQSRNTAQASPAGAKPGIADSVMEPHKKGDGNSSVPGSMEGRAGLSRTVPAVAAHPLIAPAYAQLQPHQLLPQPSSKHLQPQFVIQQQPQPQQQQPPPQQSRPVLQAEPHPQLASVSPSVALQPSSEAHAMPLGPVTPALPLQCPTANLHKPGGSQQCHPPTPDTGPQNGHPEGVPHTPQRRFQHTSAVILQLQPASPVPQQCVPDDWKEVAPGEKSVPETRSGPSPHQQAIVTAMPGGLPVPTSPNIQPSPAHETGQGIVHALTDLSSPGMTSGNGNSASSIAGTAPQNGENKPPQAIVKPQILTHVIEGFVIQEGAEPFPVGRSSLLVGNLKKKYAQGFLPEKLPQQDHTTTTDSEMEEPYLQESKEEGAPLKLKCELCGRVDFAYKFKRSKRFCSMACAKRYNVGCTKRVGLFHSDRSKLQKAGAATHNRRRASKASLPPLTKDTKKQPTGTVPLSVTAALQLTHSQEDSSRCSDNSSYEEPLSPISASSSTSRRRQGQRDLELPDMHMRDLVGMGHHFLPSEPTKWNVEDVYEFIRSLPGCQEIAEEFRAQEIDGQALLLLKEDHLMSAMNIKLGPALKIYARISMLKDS
# B3: Emerin (Homo sapiens), P50402 (parent)
# chain: MDNYADLSDTELTTLLRRYNIPHGPVVGSTRRLYEKKIFEYETQRRRLSPPSSSAASSYSFSDLNSTRGDADMYDLPKKEDALLYQSKGYNDDYYEESYFTTRTYGEPESAGPSRAVRQSVTSFPDADAFHHQVHDDDLLSSSEEECKDRERPMYGRDSAYQSITHYRPVSASRSSLDLSYYPTSSSTSFMSSSSSSSSWLTRRAIRPENRAPGAGLGQDRQVPLWGQLLLFLVFVIVLFFIYHFMQAEEGNPF
# partner: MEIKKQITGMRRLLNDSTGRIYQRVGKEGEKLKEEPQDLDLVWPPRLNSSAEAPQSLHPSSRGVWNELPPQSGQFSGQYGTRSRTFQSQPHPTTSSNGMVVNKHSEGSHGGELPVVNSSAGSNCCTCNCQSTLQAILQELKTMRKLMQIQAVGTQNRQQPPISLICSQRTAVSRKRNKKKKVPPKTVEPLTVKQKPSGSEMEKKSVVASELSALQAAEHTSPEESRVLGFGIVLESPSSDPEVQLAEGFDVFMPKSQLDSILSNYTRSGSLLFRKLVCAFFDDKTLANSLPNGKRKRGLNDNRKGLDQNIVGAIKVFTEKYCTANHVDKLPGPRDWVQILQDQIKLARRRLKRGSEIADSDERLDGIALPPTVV
# Variants of: B1
# Details: with kash5_human KASH5, Q8N6L0
row,effect of a mutation on the interaction,Variant
1,with no effect,MVKLLPAQEAAKIYHTNYVRNSRAVGVMWGTLTICFSVLVMALFIQPYWIGDSVNTPQAGYFGLFSYCVGNVLSSELICKGGPLDFSSIPSRAFKTAMFFVALGMFLIIGSIICFSLFFICNTATVCKICAWMQLAAATGLMIGCLVYPDGWDSSEVRRMCGEQTGKYTLGHCTIRWAFMLAILSIGDALILSFLAFVLGYRQDKLLPDDYKADGTEEV [Y127C]

# Variants of: B2
# Details: with PHC2, Q8IXK0-5
row,effect of a mutation on the interaction,Variant
1,with no effect,MSLADELLADLEEAAEEEEGGSYGEEEEEPAIEDVQEETQLDLSGDSVKTIAKLWDSKMFAEIMMKIEEYISKQAKASEVMGPVEAAPEYRVIVDANNLTVEIENEVNIIHKFIRDKYSKRFPELESLVPNALDYIRTVKELGNSLDKCKNNENLQQILTNATIMVVSVTASTTQGQQLSEEELERLEEACDMALELNASKHRIYEYVESRMSFIAPNLSIIIGASTAAKIMGVAGGLTNLSKMPACNIMLLGAQRKTLSGFSSTSVLPHTGYIYHSDIVQSLPPDLRRKAARLVAAKCTLAARVDSFHESTEGKVGYELKDEIERKFDKWQEPPPVKQVKPLPAPLDGQRKKRGGRRYRKMKERLGLTEIRKQANRMSFGEIEEDAYQEDLGFSLGHLGKSGSGRVRQTQVNEATKARISKTLQRTLQKQSVVYGGKSTIRDRSSGTASSVAFTPLQGLEIVNPQAAEKKVAEANQKYFSSMAEFLKVKGEKSGLMST [L107V]

# Variants of: B3
# Details: with BEND7, Q8N7W2-2
row,effect of a mutation on the interaction,Variant
1,with no effect,MDNYADLSDTELTTLLRRYNIPHGPVVGSTRRLYEKKIFEYETQRRRLSPPSSSAASSYSFSDLNSTRGDADMYDLPKKEDALLYQSKGYNDDYYEESYFTTRTYGEPESAGPSRAVRQSVTSFPDADAFHHQVHDDDLLSSSEEECKDRERPMYGRDSAYQSITHYRPVSASRSSLDLSYYHTSSSTSFMSSSSSSSSWLTRRAIRPENRAPGAGLGQDRQVPLWGQLLLFLVFVIVLFFIYHFMQAEEGNPF [P183H]
2,with no effect,MDNYADLSDTELTTLLRRYNIPHGPVVGSTRRLYEKKIFEYETQRRRLSPPSSSAASSYSFSDLNSTRGDADMYDLPKKEDALLYQSKGYNDDYYEESYFTTRTYGEPESAGPSRAVRQSVTSFPDADAFHHQVHDDDLLSSSEEECKDRERPMYGRDSAYQSITHYRPVSASRSSLDLSYYTTSSSTSFMSSSSSSSSWLTRRAIRPENRAPGAGLGQDRQVPLWGQLLLFLVFVIVLFFIYHFMQAEEGNPF [P183T]
3,with no effect,MDNYADLSDTELTTLLRRYNIPHGPVVGSTRRLYEKKIFEYETQRRRLSPPSSFAASSYSFSDLNSTRGDADMYDLPKKEDALLYQSKGYNDDYYEESYFTTRTYGEPESAGPSRAVRQSVTSFPDADAFHHQVHDDDLLSSSEEECKDRERPMYGRDSAYQSITHYRPVSASRSSLDLSYYPTSSSTSFMSSSSSSSSWLTRRAIRPENRAPGAGLGQDRQVPLWGQLLLFLVFVIVLFFIYHFMQAEEGNPF [S54F]
4,with no effect,MDNYADLSDTELTTLLRRYNIPHGPVVGSTRRLYEKKIFEYETQRRRLSPPSSSAASSYSFSDLNSTRGDAVMYDLPKKEDALLYQSKGYNDDYYEESYFTTRTYGEPESAGPSRAVRQSVTSFPDADAFHHQVHDDDLLSSSEEECKDRERPMYGRDSAYQSITHYRPVSASRSSLDLSYYPTSSSTSFMSSSSSSSSWLTRRAIRPENRAPGAGLGQDRQVPLWGQLLLFLVFVIVLFFIYHFMQAEEGNPF [D72V]
